Assay results as given in the supplement of paper PMC9112550, “Optimization of the antimicrobial peptide Bac7 by deep mutational scanning” (BMC Biology, 2022).

The sequences below were run on Escherichia coli TOP10 (assay: shrunken log2 fold change of peptide-encoding DNA abundance (4.5 h post-induction vs induction); higher = less antimicrobial activity (less host growth inhibition)). Details: time post-induction: 4.5 h; library: site-saturation at positions 5, 18, 19, 20.
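Note: peptides expressed intracellularly from a pBAD plasmid library in pooled LB shake-flask culture, induced with 0.3% L-arabinose, DNA abundance read by NGS, three biological replicates, DESeq2 with apeglm shrinkage.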

| Sequence | shrunken log2 fold change |
| --- | --- |
| RRIRFRPPRLPRPRPRPDIIPRP | 0.0368 |
| RRIRFRPPRLPRPRPRPDISPRP | -0.216 |
| RRIRFRPPRLPRPRPRPDKFPRP | -0.0567 |
| RRIRFRPPRLPRPRPRPDKNPRP | -0.413 |
| RRIRFRPPRLPRPRPRPDMAPRP | -0.108 |
| RRIRFRPPRLPRPRPRPDMNPRP | -0.407 |
| RRIRFRPPRLPRPRPRPDNDPRP | -0.188 |
| RRIRFRPPRLPRPRPRPDNIPRP | -0.269 |
| RRIRFRPPRLPRPRPRPDQGPRP | -0.167 |
| RRIRFRPPRLPRPRPRPDSMPRP | -0.715 |
| RRIRFRPPRLPRPRPRPDTDPRP | 0.479 |
| RRIRFRPPRLPRPRPRPDTVPRP | -0.0794 |
| RRIRFRPPRLPRPRPRPDTWPRP | 0.0899 |
| RRIRFRPPRLPRPRPRPDVAPRP | 0.239 |
| RRIRFRPPRLPRPRPRPDVGPRP | -0.239 |
| RRIRFRPPRLPRPRPRPDVLPRP | -0.0865 |
| RRIRFRPPRLPRPRPRPDVRPRP | 0.0165 |
| RRIRFRPPRLPRPRPRPDYCPRP | -0.127 |
| RRIRFRPPRLPRPRPRPEAHPRP | 0.171 |
| RRIRFRPPRLPRPRPRPEAIPRP | 0.104 |
| RRIRFRPPRLPRPRPRPECIPRP | -0.04 |
| RRIRFRPPRLPRPRPRPECQPRP | -0.0729 |
| RRIRFRPPRLPRPRPRPEDSPRP | -0.00878 |
| RRIRFRPPRLPRPRPRPEEFPRP | -0.0316 |
| RRIRFRPPRLPRPRPRPEEGPRP | 0.00408 |

| Sequence | shrunken log2 fold change |
| --- | --- |
| RRIRFRPPRLPRPRPRPEFHPRP | -0.342 |
| RRIRFRPPRLPRPRPRPEFNPRP | -0.199 |
| RRIRFRPPRLPRPRPRPEHEPRP | 0.0369 |
| RRIRFRPPRLPRPRPRPEHQPRP | -0.1 |
| RRIRFRPPRLPRPRPRPEHYPRP | -0.101 |
| RRIRFRPPRLPRPRPRPEITPRP | -0.208 |
| RRIRFRPPRLPRPRPRPELDPRP | 0.0203 |
| RRIRFRPPRLPRPRPRPEMRPRP | 0.244 |
| RRIRFRPPRLPRPRPRPEPLPRP | 0.0513 |
| RRIRFRPPRLPRPRPRPEPPPRP | 0.702 |
| RRIRFRPPRLPRPRPRPEQFPRP | -0.115 |
| RRIRFRPPRLPRPRPRPERGPRP | 0.0525 |
| RRIRFRPPRLPRPRPRPERTPRP | -0.0923 |
| RRIRFRPPRLPRPRPRPESIPRP | -0.126 |
| RRIRFRPPRLPRPRPRPESSPRP | 0.113 |
| RRIRFRPPRLPRPRPRPEWLPRP | 0.402 |
| RRIRFRPPRLPRPRPRPEWNPRP | -0.21 |
| RRIRFRPPRLPRPRPRPEYFPRP | 0.186 |
| RRIRFRPPRLPRPRPRPEYHPRP | -0.202 |
| RRIRFRPPRLPRPRPRPFAIPRP | -0.109 |
| RRIRFRPPRLPRPRPRPFAQPRP | -0.263 |
| RRIRFRPPRLPRPRPRPFARPRP | -0.115 |
| RRIRFRPPRLPRPRPRPFCIPRP | -0.518 |
| RRIRFRPPRLPRPRPRPFEAPRP | -0.105 |
| RRIRFRPPRLPRPRPRPFEFPRP | -0.183 |

| Sequence | shrunken log2 fold change |
| --- | --- |
| RRIRFRPPRLPRPRPRPFERPRP | -0.0442 |
| RRIRFRPPRLPRPRPRPFGFPRP | -0.436 |
| RRIRFRPPRLPRPRPRPFGHPRP | -0.19 |
| RRIRFRPPRLPRPRPRPFGPPRP | -0.159 |
| RRIRFRPPRLPRPRPRPFIAPRP | -0.489 |
| RRIRFRPPRLPRPRPRPFKGPRP | -0.23 |
| RRIRFRPPRLPRPRPRPFLEPRP | -0.355 |
| RRIRFRPPRLPRPRPRPFNFPRP | -1.17 |
| RRIRFRPPRLPRPRPRPFNWPRP | -0.975 |
| RRIRFRPPRLPRPRPRPFQMPRP | -0.647 |
| RRIRFRPPRLPRPRPRPFRKPRP | -0.122 |
| RRIRFRPPRLPRPRPRPGAMPRP | 0.0505 |
| RRIRFRPPRLPRPRPRPGDIPRP | 0.0113 |
| RRIRFRPPRLPRPRPRPGFLPRP | -0.296 |
| RRIRFRPPRLPRPRPRPGFSPRP | -0.407 |
| RRIRFRPPRLPRPRPRPGFYPRP | -0.28 |
| RRIRFRPPRLPRPRPRPGIAPRP | -0.15 |
| RRIRFRPPRLPRPRPRPGIMPRP | -0.124 |
| RRIRFRPPRLPRPRPRPGLGPRP | 0.603 |
| RRIRFRPPRLPRPRPRPGMKPRP | -0.0551 |
| RRIRFRPPRLPRPRPRPGNEPRP | -0.00911 |
| RRIRFRPPRLPRPRPRPGREPRP | 0.0157 |
| RRIRFRPPRLPRPRPRPGRNPRP | -0.173 |
| RRIRFRPPRLPRPRPRPGSEPRP | -0.0634 |
| RRIRFRPPRLPRPRPRPGSGPRP | 0.161 |

| Sequence | shrunken log2 fold change |
| --- | --- |
| RRIRFRPPRLPRPRPRPGSPPRP | 0.206 |
| RRIRFRPPRLPRPRPRPGTKPRP | 0.478 |
| RRIRFRPPRLPRPRPRPGWRPRP | 0.536 |
| RRIRFRPPRLPRPRPRPGYVPRP | -0.116 |
| RRIRFRPPRLPRPRPRPHCDPRP | -0.252 |
| RRIRFRPPRLPRPRPRPHCNPRP | -0.548 |
| RRIRFRPPRLPRPRPRPHECPRP | 0.0366 |
| RRIRFRPPRLPRPRPRPHETPRP | -0.347 |
| RRIRFRPPRLPRPRPRPHFTPRP | -0.489 |
| RRIRFRPPRLPRPRPRPHHFPRP | -0.053 |
| RRIRFRPPRLPRPRPRPHHPPRP | -0.374 |
| RRIRFRPPRLPRPRPRPHIEPRP | -0.0641 |
| RRIRFRPPRLPRPRPRPHKLPRP | -0.377 |
| RRIRFRPPRLPRPRPRPHKMPRP | -0.154 |
| RRIRFRPPRLPRPRPRPHLFPRP | -0.238 |
| RRIRFRPPRLPRPRPRPHLWPRP | 0.185 |
| RRIRFRPPRLPRPRPRPHMAPRP | -0.429 |
| RRIRFRPPRLPRPRPRPHMGPRP | -0.292 |
| RRIRFRPPRLPRPRPRPHNYPRP | -0.633 |
| RRIRFRPPRLPRPRPRPHQFPRP | -0.343 |
| RRIRFRPPRLPRPRPRPHQTPRP | 0.0857 |
| RRIRFRPPRLPRPRPRPHREPRP | -0.0534 |
| RRIRFRPPRLPRPRPRPHRTPRP | -0.18 |
| RRIRFRPPRLPRPRPRPHRWPRP | -0.17 |
| RRIRFRPPRLPRPRPRPHTEPRP | -0.731 |

| Sequence | shrunken log2 fold change |
| --- | --- |
| RRIRFRPPRLPRPRPRPHTQPRP | -0.225 |
| RRIRFRPPRLPRPRPRPHWDPRP | -0.21 |
| RRIRFRPPRLPRPRPRPHWLPRP | -0.066 |
| RRIRFRPPRLPRPRPRPHYWPRP | -0.505 |
| RRIRFRPPRLPRPRPRPIAKPRP | -0.181 |
| RRIRFRPPRLPRPRPRPIESPRP | -0.15 |
| RRIRFRPPRLPRPRPRPIFPPRP | -0.222 |
| RRIRFRPPRLPRPRPRPIGPPRP | 0.0274 |
| RRIRFRPPRLPRPRPRPIHLPRP | -0.154 |
| RRIRFRPPRLPRPRPRPIIHPRP | -0.795 |
| RRIRFRPPRLPRPRPRPIKMPRP | -0.243 |
| RRIRFRPPRLPRPRPRPIMSPRP | -0.0555 |
| RRIRFRPPRLPRPRPRPIPLPRP | -0.483 |
| RRIRFRPPRLPRPRPRPIQHPRP | -0.196 |
| RRIRFRPPRLPRPRPRPIQNPRP | -0.544 |
| RRIRFRPPRLPRPRPRPIRIPRP | -0.223 |
| RRIRFRPPRLPRPRPRPIRWPRP | 0.0239 |
| RRIRFRPPRLPRPRPRPITCPRP | -1.15 |
| RRIRFRPPRLPRPRPRPITKPRP | -0.0304 |
| RRIRFRPPRLPRPRPRPITPPRP | -0.128 |
| RRIRFRPPRLPRPRPRPIVEPRP | 0.0776 |
| RRIRFRPPRLPRPRPRPIVKPRP | -0.395 |
| RRIRFRPPRLPRPRPRPIVMPRP | -0.731 |
| RRIRFRPPRLPRPRPRPIVNPRP | 0.00221 |
| RRIRFRPPRLPRPRPRPIWMPRP | -0.226 |

| Sequence | shrunken log2 fold change |
| --- | --- |
| RRIRFRPPRLPRPRPRPIWTPRP | -0.0298 |
| RRIRFRPPRLPRPRPRPIYCPRP | -0.0425 |
| RRIRFRPPRLPRPRPRPIYHPRP | -0.701 |
| RRIRFRPPRLPRPRPRPIYPPRP | -0.574 |
| RRIRFRPPRLPRPRPRPIYVPRP | -0.871 |
| RRIRFRPPRLPRPRPRPKCCPRP | -0.149 |
| RRIRFRPPRLPRPRPRPKCDPRP | -0.136 |
| RRIRFRPPRLPRPRPRPKCGPRP | 0.0559 |
| RRIRFRPPRLPRPRPRPKDLPRP | 0.0796 |
| RRIRFRPPRLPRPRPRPKDMPRP | -0.0249 |
| RRIRFRPPRLPRPRPRPKEFPRP | -0.0812 |
| RRIRFRPPRLPRPRPRPKFQPRP | -0.14 |
| RRIRFRPPRLPRPRPRPKFRPRP | -0.0326 |
| RRIRFRPPRLPRPRPRPKGIPRP | -0.0392 |
| RRIRFRPPRLPRPRPRPKGPPRP | 0.0269 |
| RRIRFRPPRLPRPRPRPKGTPRP | -0.429 |
| RRIRFRPPRLPRPRPRPKGWPRP | 0.589 |
| RRIRFRPPRLPRPRPRPKHQPRP | -0.131 |
| RRIRFRPPRLPRPRPRPKHWPRP | 0.0787 |
| RRIRFRPPRLPRPRPRPKILPRP | 0.205 |
| RRIRFRPPRLPRPRPRPKISPRP | -0.596 |
| RRIRFRPPRLPRPRPRPKKFPRP | -0.128 |
| RRIRFRPPRLPRPRPRPKKYPRP | -0.242 |
| RRIRFRPPRLPRPRPRPKMIPRP | -0.618 |
| RRIRFRPPRLPRPRPRPKMPPRP | -0.0572 |
